Values joined by “and” are separate entries in the source; they are usually repeats but may differ in a detail not shown here. Equal entries are not always repeated.
Columns and labels:
[1] = molecular target: SARS-CoV-2 Spike Protein (Accession number MN908947.3, amino acids 16-1211) on pseudotyped VSV VLPs (SARS-CoV-2) (UniProt P0DTC2)
[2] = molecular target: Bt-MERS.hFc (mAb2664-L2) (MERS-CoV) (UniProt K9N5Q8); assay: Luminex bead assay, supernatant
[3] = molecular target: MERS.mFc (mAb2663-L1) (MERS-CoV) (UniProt K9N5Q8); assay: Luminex bead assay, supernatant
[4] = molecular target: MERS.hFc (mAb2664-L1) (MERS-CoV) (UniProt K9N5Q8); assay: Luminex bead assay, supernatant
[5] = molecular target: VLPs expressing VSV only (negative binding control) (vesicular stomatitis virus)
[6] = molecular target: SARS-CoV-2 spike protein (S-wt, Wuhan-Hu-1, NCBI Accession Number MN908947.3) on VSV-SARS-CoV-2-S pseudoparticles (SARS-CoV-2) (UniProt P0DTC2); assay: cell-based or functional assay

| Substance | Ratio VSV/Spike:VSV [1] | Binding signal (MFI) [2] [MFI] | Binding signal (MFI) [3] [MFI] | Binding signal (MFI) [4] [MFI] | Antibody Binding Signal (RLU) [5] | mAb neutralization potency (IC50 (M)) [6] [M] |
| --- | --- | --- | --- | --- | --- | --- |
| IgG1 Isotype Control (antibody) | 1 and 2 |  |  |  |  |  |
| mAb10933 (antibody) |  | 26 | 22 | 21 | 82 RLU and 29 RLU |  |
| mAb10934 (antibody) |  |  | 77 |  |  | 5.44e-11 |
| mAb10936 (antibody) |  | 32 | 32 | 26 |  | 1.11e-10 |
| mAb10987 (antibody) |  |  |  |  |  | 4.06e-11 |
